# Measurements: the DeepSol protein solubility set
# Test: soluble on expression in E. coli; label from the status in PepcDB or PDB records
row,Sequence,soluble on expression in E. coli
1,MASYKGLIVDVNGRSHENNLAHRTREIDRERLIVRRGQPFSITLQCSDSLPPKHHLELVLHLGKRDEVVIKVQKEHGARDKWWFNQQGAQDEILLTLHSPANAVIGHYRLAVLVMSPDGHIVERADKISFHMLFNPWCRDDMVYLPDESKLQEYVMNEDGVIYMGTWDYIRSIPWNYGQFEDYVMDICFEVLDNSPAALKNSEMDIEHRSDPVYVGRTITAMVNSNGDRGVLTGRWEEPYTDGVAPYRWTGSVPILQQWSKAGVRPVKYGQCWVFAAVACTVLRCLGIPTRPITNFASAHDVDGNLSVDFLLNERLESLDSRQRSDSSWNFHCWVESWMSREDLPEGNDGWQVLDPTPQELSDGEFCCGPCPVAAIKEGNLGVKYDAPFVFAEVNADTIYWIVQKDGQRRKITEDHASVGKNISTKSVYGNHREDVTLHYKYPEGSQKEREVYKKAGRRVTEPSNEIAEQGRLQLSIKHAQPVFGTDFDVIVEVKNEGGRDAHAQLTMLAMAVTYNSLRRGECQRKTISVTVPAHKAHKEVMRLHYDDYVRCVSEHHLIRVKALLDAPGENGPIMTVANIPLSTPELLVQVPGKAVVWEPLTAYVSFTNPLPVPLKGGVFTLEGAGLLSATQIHVNGAVAPSGKVSVKLSFSPMRTGVRKLLVDFDSDRLKDVKGVTTVVVHKKYRSLITGLHTD,soluble
2,MVHRLDISSEMIAFFKNCAKNGNYTPFLSNYRGLIRDIGQQLEKVSLPNNSLEKLMVKHFANCFVALHTMNSLDELAASAPKFVADFKQAIGNKKTLKELHDNFKSSDTKQQGLNRKLTNKMERNRSEMKQFKMEMMSSFNGLKQNMDTKMEEMMQLMRALIQDLTSQKLAQNPESSKCSFPNYGLEIQKKFEDMIQNMKSQTGSVFELKLKEIEQLEAEAENTIPKIPKKAAGSSSEH,not soluble
3,MSLAMLMLLAACSERSADWSLYNVKGHLPDLKFSLPGAHGKTVSSDDLKGKTVLLFFGYASCPDVCPTTMAQLTAVLQQLGEQARDVRILFVSVDPHRDTPDILQAYVNAFNNNAIGVTGNEKQIADLARRYRLAYQIEKPKPGDDADIYDVTHSRGVYIFDNQGKARLLASDTDTIDTMVKDLRQLIAQTQEGHHHHHH,soluble
4,MIAITGATGQLGHYIIESLMKTVPASQIVAIVRNPAKAQALAAQGITVRQADYSDEAALTSALQGVEKLLLISSSEVGQRAPQHRNVINAAKAAGVKFIAYTSLLHADTSPLGLADEHIETEKMLADSGIVYTLLRNGWYSENYLASAPAALEHGVFIGAAGDGKIASATRADYATAAARVISEAGHEGKVYELAGDSAWTLTQLAAELTKQSGKQVTYQNLSEADFAAALKSVGLPDGLADMLADSDVGASKGGLFDNSKTLSKLIGCPTTTLAESVSHLFNVNN,not soluble
5,MLKSAFILASAPLFFTLAACSGESGTQVNTASAPATQVSRNIGSTVKNRGKLICGVSGELPGFSFVGTDAKYSGIDVDVCRAVTAALFDNPDAVEFRNLNTKERFTALQTGEIDLLSRNTTWTMSRETSVGLQFAPVIFYDGQAIMVSKNSGIKSLADLKNKAICTQTGTTTEQNLADQMRKRSITYKPVVFEDVNITFATYAEGRCDGVTTDRSALISRRTTLPKPEDNIILDELLSSEPLAPAVAKGDPQWNDIVKWVVYSLVKAEELGINSQNIAQLTNSNDPDIKRFLGTEGNLGEGLGLTNDFAARIVKHVGNYGEVYDRNLGGKTKLNLPRGQNQLAIKGGLLYSPPFR,not soluble
6,MSQNHVIELANTLKQRPIVCDYTGGRFRLTNEGLTYIGIDRDGTPLPPRWICAPLHIVAKTRDAQSGEWGRLLEWQDDDGITHQWAMPLALLQGDASDVRRELARLGLSISPHRTARDLLASYLQVFPVDARARCVDKLGWHGDVFVTASQCIGQSTEKIVFQNTNAIEPAMSIKGSVDKWRDSIGRLASGNSRLVFAISVALAPVLAKIVGEDSGGFHFRGASSSGKSTALSLAASVWGNPQSYCRLWRSTTNGLEGLAALHNDGLLILDELSQMDPREAGEAAYLLANGQGKTRASRTGTVRQSSRWSLFFLSAGEESLTALMAKSGQRINAGQEIRLADIEADAGCQMGIFETIHDQLSPASMALSLKKYSSGYHGAIGRAWLNQVVANRQTISRFITDTIQSFVDIVIQPDATGQIIRVARRFALVAAAGELASQFGLTGWKKGESFHAAKTCFIAWQDAFGVDGHREDRAIMAQVRAFFESHGASRFDNVNSPNNDKILNRAGFYHTDGEGFRIYMVLTETYKNELCKGFDQRTVTRVLLQAGWLKPASDGKLEHHHHHH,not soluble
7,MIVGIGIDIIELNRIEKMLDGKLKFMERILTENERNVAKGLKGSRLTEFVAGRFAAKEAYSKAVGTGIGKEVSFLDIEVRNDDRGKPILITSTEHIVHLSISHSKEFAVAQVVLESSSS,not soluble
8,EFKHILVGVDDSDDAQLAFRYAINRAKSDGAKLTIVSILEQDNMNVYEAMSKDFVHGQRKDLEEHVQQYQKLARDFGVTDVNAVVDEGDPGETIVKTVIPALKPDLLVIGSVAKHGVRKYFGSQAAYMAKHAPISVLVIR,not soluble
9,MGSDKIHHHHHHMNAAENGLIPGAANSAGTKAYVARFAGTLADEHFSDFLNTRIKLSSLGVGTFPGGVDDVTDVAVAAIVARALQSGINVVDTGANYRLGRAGRAVGVGIAKAIAAGIQREEFFVVGKGGFLTFPDGRPEDPLTFFREEVAAKGLGKEEDLAQGVHCLSPEYIAWQLDTLRAQTGLGTLDVFLVDQPEVHIPLIGKEQMYRKLTDVFTMLEAAVQANKIRYYGISTFNACRVETDNTLFQSLTSLIGLAEKAAGQGNRHHLRVVQLPFNALMPEAYTRFSQVTGQGNIGSTIQAAFQLKLTIMASHPLGKGLLAREEVPSLQEAMPELADAAQRAIQFVRSTPGIGVTLVGLSTPLHLPDFLAVARQLPLSKERYLAMFEKEQ,not soluble
10,MAHHHHHHMHRNIHGGTASATIANSALVSPPPHTTIPPLPAGMDPTYYALSLLRRRRLEECIAVSTQYLAVFNEKMRLTSSGTQKQADGVDEPLWFIQTRALITQDWFDELDVDNDGVDEVLLDGEQNISSTAHRPGTSLQRKDAPTGTTIPTGMAQRQGTARPISSRYGYVRPGTQSRNRPGTMSIRPITSRMMRIGTASLQAVPGGPHIDVRKLNLEKYGRTKPIVARILCDFLLHVEHRPRMVLELGAIALEQQPKDWWWMSRMGQAYYRLGLLREAERMFKAALTIQENVADVMRLARVFTKMDQPLKALDLLSEASKKNPMDHHLLLHMARLYDQLQDAEKSCQLYRRVLQLDSSNMESIACIAAYMFYEKKQPEIALRLYRRLLQMGVQTTELWNNLGLCCFYSSQYDIALSCLQRAVAISTEDETLADVWYNIGHIGIGTGDLGLAHRAFKVALGANPRHAEALNNLAVLNLNIGQVDQAMNDLAMAIEVSPEQHEPLYNFALLAFKAGNFEKSYKLLTQALEACPDHPESALLQATLRKSLATL,not soluble
11,MNGFDGLQEEESSDLKSIQKELAILKLKLSEQESLFNSITENTLAGYWIWDIPLNTMFISAHLKSMLGYADHELENSPETINMLMHPSDLPATYALLSKHVESDGKVPFEIEVRYKHKNGSIVWVICSGNIVTRDENGKPSKMIGCHLDNTELKKAQGVQKYTEELERKNVEMEQFAYVASHDLQEPLNTIQGFIALLSAKLEDAPDPDVTQYLHYINQSTLRMTNLIKGLLEYSRIGKNVVMSKIDCNQVITDVLMDLHIQVEETQADIEVTPLPFVMGYDIELRILFQNLISNALKFSVRRPVIKIYSVVEGGYFKFSVADNGIGIDPQFREKIFKLYQQLHPKSTYEGNGLGLAQCFKIVTELHSGSIWVESNEKEGSIFHFTIPYNA,not soluble
12,MAPDRSGGPAAAELIAGLGLERHPEGGWYRETYRAAGTIPGTLLPGQVGGERSFSTAIYFLLERGDISALHRIRSDELWHFHAGAPLIVHVITPAGGSYALTLGSDPASGETFQAVVPAGCWFGAETTGDYSLVGCTVAPGFDFADFEMGSRADLLGRFPTHAGIIRRLTRDGDLEHHHHHH,not soluble
13,MISLEDASLTKKGIVKLSSATDSDSEALAATPKAVKTVMGEVRTKAPLDSPAFTGTPTTPTPPGDAKGLQTTNAEFVRKLIAALVGSVLEPLDTLQELADALGNDPNFATTVLNKLAGKQPLDETLTALSGKSVDGLIEYVGLRETISRAADALQKSQNGGDIPDKDLFVRRIGAARAFDGAVIIGCDDNPWTTAEFIVWLESQGAFNHPYWMCRGSWSYAYNKIITDTGCGNICLAGAVIEVMGVRGAMTIRVTTSHSVSGW,not soluble
14,MSLKIAILYREEREKEGEFLKEKISKEHEVIEFGEANAPGRVTADLIVVVGGDGTVLKAAKKAADGTPMVGFKAGRLGFLTSYTLDEIDRFLEDLRNWNFREETRWFIQIESELGNHLALNDVTLERDLSGKMVEIEVEVEHHSSMWFFADGVVISTPTGSTAYSLSIGGPIIFPECEVLEISPIAPQFFLTRSVVIPSNFKVVVESQRDINMLVDGVLTGKTKRIEVKKSRRYVRILRPPEYDYVTVIRDKLGYGRRIEEGGSHHHHHH,soluble
15,GSFTMPGLVDSNPAPPESQEKKPLKPCCACPETKKARDACIIEKGEEHCGHLIEAHKECMRALGFKI,soluble
16,MENGEVLISGYRIPYSYAAMPGVKKNLVIIDIKGDEIWQKLRAADRINEWKINVYIPHFIAGSKEVVDSEPSSNLDSAGEFYYNFVQAMRLKNVMLMGEGINADVALKCSMIHPERFSNVIAIDGTGYDGYAEELYRVQKPVLLVWGGARGYRETMIGQSYHDLIAGSVFKVFDNSKRPLEDSTDRFFSMLKNYIAVD,not soluble
17,MGSDKIHHHHHHMIIDTHIHAYPTSDDSKMTLEEIVAQARIIGLDGICITDHDSNEIMARAHEYRKQMGYPIFVGAEVFTWEGDVIVFGLERLPEERVSARYLLDLVNKANGVAISAHPFRQNNRGMGNSIREHKDLHGVEAFNGSTDHANNMKACDLAMELGIPVFGASDAHNTEALGKFATVFPNGLKDEKDLIEAIKMGKVYPVAYNHSADAKWTVIPPIG,not soluble
18,MVVYGADVICASCVNAPTSKDIYDWLQPLLKRKYPNISFKYTYIDITKDNDNLTDHDLQFIERIEQDELFYPLITMNDEYVADGYIQTKQITRFIDQKLVNE,soluble
19,AHHHHHHGSKLMEVSPLFPCIFLRRVNRFVGLVRIKERIERALITNTGRLNEFMIPGRIGYCTPKAGGKTRYILLGFEDHGKIAIIDTRLQGKAFEKIIEKELLPELEGCRIIKREPRVGESRLDYLLECSKGEIFVETKSAVLREGEYAMYPDCPSVRGQRHIKELIKLARDGKRAMIVFIGALPNVSKFKPYKKGDPKIAELLKEALEAGVEIRALGLHMELSGEIIYRGELGVEI,soluble
20,KKPDTLWVNKRVVKCPEEVAQQLAVEAGSDVFLLKRIRYVDEEAVSIEESWVPAHLIHDVDAIGISLYDYFRSQHIYPQRTRSRVSARMPDAEFQSHIQLDSKIPVLVIKQVALDQQQRPIEYSISHCR,not soluble
21,MRNTIEIEDPNHRPFTISSNYAYYIGYLDLRPDGMGYHKRGEMNGLWYPPLRVLKNIYVSDGKTVFKPAHAEIGYSEARFEFYGTTLQISFQDDNDFEIAVKNASNDVRKLIVELHPETVWYTVNDTRIKVNRRSAIIYSHMFPETRLRIAASSEFSIENGRLSLLADGKSSLRISSACLHSHRPPIRVNRYRDIDRFSLLRGGGQIGENFRTAKDNLIRLSLINQETGYGLTAGHPDFPWYFGIDTLLSFNGILDAGLFELAFGSLNILARYSKSGKIPHEILTSGKVYNDGDLEETALFPYAVFKYAEWAGYTEEMRHLATIASESFNYLFAHGFQGRGIMEDPKAGEGVDIDTISFTIMSLMELQKVMDMDQEAFGGIADAVKPTEAIDALRKTVQSFWMSERRTFANRIVDGVPVDLGFWTSIIPFYTGIAGIDQYRKFVSDGGGLSRISSSSGIVVDASGNSMPVNTGMFVLGSIRYGDAENAARYFKMLDRSLGLFSPGAYPEISNNPQGCYLQAWSAAIYIESIVEGFFGIHSEGGRLISKPFNSSLMPGGATLKNVRFRNKYYDFIL,not soluble
